The target of experiment [1] is T1, Aβ1-41 expressed as GST fusion protein (Homo sapiens (Human), UniProt P05067 672-712).
T1 construct: also called 1-41 (WT); not shown: Glutathione-S-Transferase (GST) fusion partner, Amersham Pharmacia Biotech system
The experiment can be described thus: ELISA: GST fusion protein immobilized 0.25 µg per well, biotin goat anti-mouse (H+L) + streptavidin-HRP, OD450. For orientation: An ELISA detects its analyte on a solid surface through an enzyme-linked reagent.

The target in another experiment is T2, Aβ1-40 peptide.
T2 construct: Synthetic peptide, also the immunogen; also called Aβ peptide; β-amyloid peptide 1-40
The experiment is described as follows: Affinity Kd of Table 2; method and format not stated in Example 1.

Experiment [2] deals with T3, Aβ1-42 peptide.
T3 construct: also called 1-42 (WT); β-amyloid peptide 1-42
The experiment is described as follows: ELISA: peptide immobilized on plate + Ab + GAMIgG(Fc)HRP, absorbance 490 nm; antibody concentration not given.

The target of experiment [3] is T4, Aβ1-43 peptide.
T4 construct: also called 1-43 (WT); β-amyloid peptide 1-43
Described as above.

Experiment [4] has as its target T5, Aβ1-40 variant V36A expressed as GST fusion protein (Homo sapiens (Human), UniProt P05067 672-711, Expressed as a GST fusion protein; the GST part is left out.).
T5 construct: also called V36A (1-40); not shown: GST fusion partner and its linker
The experiment can be described thus: ELISA: GST fusion protein immobilized 0.25 µg per well, antibody at 2 nM, biotin goat anti-mouse (H+L) + streptavidin-HRP, OD450.

Experiment [5] concerns the target T6, Aβ1-40 variant V40A expressed as GST fusion protein (Homo sapiens (Human), UniProt P05067 672-710, Expressed as a GST fusion protein; the GST part is left out.).
T6 construct: also called V40A (1-40); not shown: GST fusion partner and its linker
Described as above.

Experiment [6] has as its target T7, Aβ1-40 variant V39A expressed as GST fusion protein (Homo sapiens (Human), UniProt P05067 672-711, Expressed as a GST fusion protein; the GST part is left out.).
T7 construct: also called V39A (1-40); not shown: GST fusion partner and its linker
Described as above.

For experiment [7], the target named is T8, Aβ1-28 peptide.
T8 construct: Soluble fragment from American Peptide Company
The experiment can be described thus: SPR (Biacore 3000) competition: antibody over biotin-Aβ1-40 on a streptavidin chip, with soluble peptide; % of maximal binding. For orientation: In SPR one partner is held on a chip, and binding of the other changes the refractive index at the surface.

In experiment [8] the target is T9, Aβ1-38 peptide.
T9 construct: Soluble fragment from American Peptide Company
The description is as above.

For experiment [9], the target named is T10, Aβ1-16 peptide.
T10 construct: Soluble fragment from American Peptide Company
T10 peptide: DAEFRHDSGYEVHHQK
The description is as above.

Experiment [10] has as its target T11, Aβ1-40 polypeptide coupled to biotin, immobilized on a streptavidin-coated chip (coupled to biotin (position not given)).
T11 construct: From Global Peptide Services; Used in the SPR assays; also called biotinylated Aβ peptide 1-40; immobilized Aβ1-40
The experiment can be described thus: SPR (BIAcore 3000), Fab over biotin-Aβ1-40 on SA chip, 'Steady-State' method.

The target in experiment [11] is T12, beta amyloid precursor protein (βAPP) (Homo sapiens, UniProt P05067 18-770).
T12 construct: also called amyloid beta (A4) precursor protein
The experiment is described as follows: ELISA: β-APP (gD) immobilized on plate + Ab + GAMIgG(Fc)HRP, absorbance 490 nm; antibody concentration not given.

The target of experiment [12] is T1, Aβ1-41 expressed as GST fusion protein. The experiment can be described thus: ELISA: GST fusion protein immobilized 0.25 µg per well, antibody at 2 nM, biotin goat anti-mouse (H+L) + streptavidin-HRP, OD450.
Experiment [13] deals with T13, Wild-type Aβ1-40 expressed as GST fusion protein (Homo sapiens (Human), UniProt P05067 672-711).
T13 construct: Expressed in E. coli; also called Aβ1-40 (WT) GST fusion; WT Aβ1-40; not shown: Glutathione-S-Transferase (GST) fusion partner, Amersham Pharmacia Biotech system
The experiment is described as above.

The target in experiment [14] is T8, Aβ1-28 peptide. The experiment is described as follows: SPR (Biacore 3000) competition: antibody 100 nM over biotin-Aβ1-40 on a streptavidin chip, with soluble peptide at 1000 nM; % of maximal binding.
Experiment [15] has as its target T9, Aβ1-38 peptide. Described as above.
In experiment [16] the target is T10, Aβ1-16 peptide. Described as above.
Experiment [17] deals with T3, Aβ1-42 peptide. The experiment is described as follows: ELISA: peptide immobilized on plate + Ab + GAMIgG(Fc)HRP, absorbance 490 nm.
The target of experiment [18] is T4, Aβ1-43 peptide. The description is as above.

T7 sequence (P05067 672-711 V710A limits assumed): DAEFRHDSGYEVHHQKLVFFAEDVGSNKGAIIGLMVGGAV
T6 sequence (P05067 672-711 V711A limits assumed): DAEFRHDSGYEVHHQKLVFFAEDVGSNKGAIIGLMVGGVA
T5 sequence (P05067 672-711 V707A limits assumed): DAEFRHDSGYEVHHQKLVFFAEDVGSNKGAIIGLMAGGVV
T1 sequence (P05067 672-712): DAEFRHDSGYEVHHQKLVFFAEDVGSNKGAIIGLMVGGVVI
T12 sequence (P05067 other isoform, or with tags, fused parts or gaps limits assumed): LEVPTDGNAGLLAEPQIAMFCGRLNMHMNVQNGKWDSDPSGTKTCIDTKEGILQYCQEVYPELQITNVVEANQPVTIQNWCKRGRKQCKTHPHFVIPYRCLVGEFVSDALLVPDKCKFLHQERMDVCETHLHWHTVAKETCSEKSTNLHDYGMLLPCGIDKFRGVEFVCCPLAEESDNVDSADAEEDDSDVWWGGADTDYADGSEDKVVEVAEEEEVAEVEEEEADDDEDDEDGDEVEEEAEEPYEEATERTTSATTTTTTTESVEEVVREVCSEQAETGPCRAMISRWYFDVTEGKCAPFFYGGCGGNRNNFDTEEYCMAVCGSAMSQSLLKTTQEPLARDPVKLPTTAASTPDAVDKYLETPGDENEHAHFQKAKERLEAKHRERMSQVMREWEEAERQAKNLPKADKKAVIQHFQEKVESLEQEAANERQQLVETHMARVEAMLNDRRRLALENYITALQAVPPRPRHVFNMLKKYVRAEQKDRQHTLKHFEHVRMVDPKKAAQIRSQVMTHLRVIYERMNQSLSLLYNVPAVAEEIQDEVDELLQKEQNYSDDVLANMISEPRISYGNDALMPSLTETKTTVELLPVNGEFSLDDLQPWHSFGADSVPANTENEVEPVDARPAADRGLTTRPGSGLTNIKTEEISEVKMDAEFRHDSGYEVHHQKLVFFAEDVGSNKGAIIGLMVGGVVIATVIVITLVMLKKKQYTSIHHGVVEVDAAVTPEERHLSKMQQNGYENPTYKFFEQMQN

B1: monoclonal antibody 2286 (produced by hybridoma 8A1.2A1) (antibody, V domains shown)
VH: EVKLLESGGGLVQPGGSLKLSCAASGFDFSRYWMNWVRQAPGKGLEWIGEINPDSSTINYTPSLKDKFIISRDNAKNTLYLQMSKVRSEDTALYYCARQMGYWGQGTTLTVSS
VL: DIQMTQTTSSLSASLGDRVTISCSASQGISNYLNWFQQKPDGTVKLLIYYTSSLHSGVPSRFSGSGSGTDYSLTISNLEPEDIATYYCQQYRKLPYTFGGGTKLEIKR
By Kd is commonly meant the constant that tells how readily two partners part at equilibrium. A low value points to tighter binding. As for B1, the binding result in [1] is “no binding (tested: 2 nM)”; in the experiment with Aβ1-42 peptide [2], “no binding”; with Aβ1-43 peptide [3], “no binding”; in experiment [4], “binds”; in experiment [5] it was “binds”; in [6], “binds”. Besides, the binding result with Aβ1-28 peptide [7], with Aβ1-38 peptide [8] and in the experiment with Aβ1-16 peptide [9] was “no binding” each time. This molecule also came in with an equilibrium dissociation constant (Kd) with Aβ1-40 peptide of 2.7 nM.

B2: Mouse 2286 Fab (Fab, V domains shown)
VH: B1 VH
VL: B1 VL
For the molecule B2, the Kd in [10] was 76 nM.

B3: monoclonal antibody 2324 (produced by hybridoma 10B10.2E6) (antibody, V domains shown)
VH: VTLKESGPGILKPSQTLSLTCSFSGFSLSTSGMGVGWIRQSSGKGLEWLAHIWWDDDKYYNPSLKSQLTISKDTSRNQVFLKITSVDTADTATYYCARRGVRHRDYFDYWGQGTTLTVSS
VL: DVLMTQTPLSLPVSLGDQASISCRSSQSIVHSNGNTYLEWYLQKPGQSPKLLIYKVSNRFSGVPDRFSGSGSGTDFTLKISRVEAEDLGVYYCFQGSRVPLTFGAGTKLELKR
In the experiment with Aβ1-40 peptide, B3 had a Kd of 0.9 nM. Moreover, the binding result is “no binding” in [11]; “binds” in experiment [4]; “binds” in [12]; “binds” in [13]; “binds” in [5]; “binds” in [6]. For the same molecule, the binding result with Aβ1-28 peptide [14], with Aβ1-38 peptide [15], in the experiment with Aβ1-16 peptide [16], in the experiment with Aβ1-42 peptide [17] and in the experiment with Aβ1-43 peptide [18] was “binds” in each case.

For the origin of these results see patent publication US20040146512A1 (RINAT NEUROSCIENCE, published 2004).
